In the nanobody polyreactivity screen of Harvey et al. (2022):

Test: yeast display, Sf9 membrane polyspecificity reagent, FACS + sequencing; frameworks hold sequencing errors
In short: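 Galactose induction of a Saccharomyces cerevisiae BJ5465 synthetic nanobody display library ran 36–48 hours. The cells were then stained for 1 hour at 4 °C with 10% biotinylated, detergent-solubilized Sf9 membrane reagent, pulled down on streptavidin microbeads and FACS-sorted into low and high (top ~1%) gates on expression and reagent-binding fluorescence. Labels for polyreactivity follow the gate of origin.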

Row | Sequence | polyreactivity (PSR sort gate)
1 | QVQLVESGGGLVQAGGSLRLICAASGSIFYGNTMGWYRQARGKERELVAAISSGGSTYYADSVKGRFTISRDNAKNSVYLQMNSLKPEDTAVYYCAREDYSHSFLTYDYWGQGSQVTVSS | low polyreactivity
2 | QVQLVESGGGLVQAGGSLRLICAASGSIFYYNVMGWYRQAPGKEREWVAAIDIDGSTYYADSVNGRFTIARDNAKNTVYLQMNSLKPADTAVYYCNAQAPYWFSFYSDHKYDYWGLGTQVTVSS | low polyreactivity
3 | QVQLVESGGGLVQAGGSLRLICAASGSILGTYAMGWYRQAPGNDRELVAAISSSGRTSYADSVKGRFTISRDNAKNTVYLQMNSLKPEETAVYYCNASNYIFLINDPDAAPWLYDYWGQGSQVTVSS | low polyreactivity
4 | QVQLVESGGGLVQAGGSLRLICAASGSIVKNYAMGWYTQAPGKERELVAVISSGGSTNYADSVKGRFTISRDNAKYTVYLHMNSLIPEDTAVYSCAAERKSRGFWYDYWGQGTQVTVSS | high polyreactivity
5 | QVQLVESGGGLVQAGGSLRLICAASGSTFAGNTMGWYRQAPGKERELVATITSDGSTDYADSVKGRFTISRDNAKNTVYYQMNSLKAEDPAVYYCAKARGLSKMDSWGQGTQVTVSS | low polyreactivity
6 | QVQLVESGGGLVQAGGSLRLICAASGSTFARNAMGWYRQAPGKERELVAAITTRGSSTYYADSVKGRFTISRDNAKNTVYLQMNSLKPEDTAVYYCAADSRRSWYWGGYRQTGMGYWGQGTQLTVSS | high polyreactivity
7 | QVQLVESGGGLVQAGGSLRLICAASGSTFDANAMGWYRQAPGKERELVAAITSNGGSTYYADSVKARFTISRDNAKNTVYLQMNSLKPEDTAVYYCATEQHTVQDYDFWGQGTQVTVSS | low polyreactivity
8 | QVQLVESGGGLVQAGGSLRLICAASGSTFESYAMGWYRQAPGKERELVAAISRRGGRTYYADSVKGRFTISRDNAMNTVSLQMYSLKPEDTAVYYCATDSSYYGSDDYWGQGTQVTVSS | high polyreactivity
9 | QVQLVESGGGLVQAGGSLRLICAASGSTFGVNAMGWYRQAPGKERELVAVITRSGGSTYYADSVKGRFTISRDNAKNTVYLEMNSLKPEDTAVYYCAKSGVVDWGQGTQVTVSS | low polyreactivity
10 | QVQLVESGGGLVQAGGSLRLICAASGSTFGVYDMGWYRKAPGKERELVAAISWRGITYYADSVKGRFTISRDNAKNTVYLQMNSLNPEDTAVYFCASYEWLAYTSAWYGYWGKGTQVTVSS | high polyreactivity
11 | QVQLVESGGGLVQAGGSLRLICAASGSTFGYYTMGWYRQAPGKERELVAAISSGGSRTNYADSVKGRFTISRDNAKNTVYLQMNSLIPEDTAVYYCAAGPVSYVRYGSEYDYWGQGTQVTVSS | high polyreactivity
12 | QVQLVESGGGLVQAGGSLRLICAASGSTFKYNAMGWYRQAPGKERELVAAITYSGSSTYYADSVKGRFTISRDNAKNTVYLQMNSLKPEDTAVYYCAAGDLAKYRSYSYYYWGQGTQVTLSS | high polyreactivity
13 | QVQLVESGGGLVQAGGSLRLICAASGSTFLKYAMGWYRQAPGKERELVAAITYRGGTTYYADSVKGRFTISRDNAKNTVYLQMNSLKPEDTAVYYCAARGYKRMGYWGQGTQVTVSS | high polyreactivity
14 | QVQLVESGGGLVQAGGSLRLICAASGSTFNIYAMGWYRQAPGKERELVAAITSSGGSTYYAESVKGRFTISRDNGKNTVYLQMNSLKPEYTAVYYCNTDQYSPYEYSSFDSWGQGSQVTVSS | low polyreactivity
15 | QVQLVESGGGLVQAGGSLRLICAASGSTFRNYAMGWYRQAPGKEREFVAAITWSGGRTYYADSVKGRFTISRDNAKNTVYLQMNSLKPEDTAVYYCAARYRRGYDYWGQGTQVTVSS | high polyreactivity
16 | QVQLVESGGGLVQAGGSLRLICAASGSTFRYYAMVLYRQAPGKERELVAAISGTGSTYYADSVKGRFTISRDNAKNTVYLQMNSLKPEDTAVYYCAAYPRASQRYNYWGQGTQVTVSS | high polyreactivity
17 | QVQLVESGGGLVQAGGSLRLICAASGSTFTGYAMGWYRQAPGKERELVAAISISGGRTFYADSVKGRFTISRDNAKNTVYLQMNSLKPEDTAVYYCAAFLRGSKYSFDYWGQGTQVTVSS | high polyreactivity
18 | QVQLVESGGGLVQAGGSLRLICAASGSTFVLYAMGWYRQAPGKERELVAAITKRGGNTYYADSVKGRFTISRDNAKNTVYLQMNSLKPEDTAVYYCAADHVRSPFDSWGQGTQVTVSS | low polyreactivity
19 | QVQLVESGGGLVQAGGSLRLICAASGSTFVPYTMAWYRQAPGKERELVAAISGSGGTDYADSVKGRFTISRDNGKNTVYLQMNSLKPEDTAVYYCAAYSRVVPSFYYWGQGTQVTVSS | low polyreactivity
20 | QVQLVESGGGLVQAGGSLRLICAASGSTFVRNAMGWYRQSPGKEREFVAAIRRSGGSTYYADSVKGRFTISRDNPKNTVYLQINSLKPEDTAVYDCAARNYYTYDYWGQGTQVTVSS | high polyreactivity
21 | QVQLVESGGGLVQAGGSLRLICAASGSTFWSNAMGWYRQAPGKERELVATINSGDGTNYADSVKGRFTISRDNAKNTVYLQMNSLKPEDTAVYYCAAEKYYPWGWYTYDYWGQGTQVTVSS | high polyreactivity
22 | QVQLVESGGGLVQAGGSLRLICAASGSTFYEYAMGWYRQAPGKERELVAAISSNGARTYYADSVKVRFTISRDNAKNTVYLQMISLKPEDTAVYYCALVYRYAHTKYDYWGQGTQVTVSS | high polyreactivity

Row | Sequence | polyreactivity (PSR sort gate)
23 | QVQLVESGGGLVQAGGSLRLICAASGSTFYPNAIGWYRQAPGKERELVAAISYTGGRTYYADSVKGRFTISRDNAKNTVYLQMNSLKPEDTAVYYCAVLVVGSTTQDEPYFCGVEHDYWGQGTQVTVSS | low polyreactivity
24 | QVQLVESGGGLVQAGGSLRLICAASGSTFYWYMGWYRQAPGKERELVAAITSGGRTYYADSVKGRFTISRDNAKNTVYLQMNSLKPEDTAVYYCATTRRYAYRGGHNYWGQGTQVTVSS | high polyreactivity
25 | QVQLVESGGGLVQAGGSLRLICAASGSTIAVYAIGWYRQAPGKERELVASISFSVVSTSYADSVKGRFTISRDNAKNTVYLQMNSLKPEDTAVYYCSTYYVRASYRYDYWGQGTQVTVSS | high polyreactivity
26 | QVQLVESGGGLVQAGGSLRLICAASGSTLTSNSMGWYRQAPGKERELVASISRRGDSTNYADSVKGRFTISRDNAKNTVYLQMNSLKPEDTAVYYCVAYGYFQSNLWSEFDYWGQGTQVTVSS | low polyreactivity
27 | QVQLVESGGGLVQAGGSLRLICAASGSTYDRNVLGWYRQEPGKERELVAAISRVSSTNYADSVKGRFTISRDNAKNTVYLQMNSLKPEDTAVYYCAADRAGSIMNYWGQGTQVTVSS | low polyreactivity
28 | QVQLVESGGGLVQAGGSLRLICAASGTTFGRNAMGWYRQAPGKERELVDAIDSGASTYYADSVKGRFTISRDNAKNTVYLQMNSLKPEDTAVYYCGADVVYDYGGMDYWGQGTQVTVSS | low polyreactivity
29 | QVQLVESGGGLVQAGGSLRLICAASGYIFPYYAIGWYRQAPGKERELVAGITTDGSSTYYADSVKGRFTISRDNAKNTVYLQMPSLKPEDTAVYYCYGYPGYTWGWYDYWGQGTQVTVSS | low polyreactivity
30 | QVQLVESGGGLVQAGGSLRLICAASGYTFGGYAMGWYRQAPGKERVLVAAISTDGDSTFYADSVKGRFTISRDNAKNTVYLQMNSLKPEDTAVYYCAASVNTGSVTEYDYWGQGTQVTVSS | low polyreactivity
31 | QVQLVESGGGLVQAGGSLRLICAASVSTFVRNAMGLYRQAPGKERELVAAISRSGGRTYYADSVKGRFTISRDNAKNTVYLQMNSLKPEDTSVYYCAADGKSVYDYWGQGTQVTVSS | high polyreactivity
32 | QVQLVESGGGLVQAGGSLRLICAGSGLTFPYYTMGWYRQAPGEERELVAAISRRGGSTYYADSVKGRFTISRDNAKNTVYLQMNSLKPEDTAVYYCAADKYSWYDYWGQGTQVTVSS | low polyreactivity
33 | QVQLVESGGGLVQAGGSLRLICASSGCTFGDYAMGWYRQEPGKERELVAAITIGGITTYADSVKGRFTISRDTAKYTVYLQRNSLKPEDTAVYYCAAAERGHWDDYWGQGTQVTVSS | low polyreactivity
34 | QVQLVESGGGLVQAGGSLRLICAVSGHIFGSNAMGWYRQAPGKERELVAAIRSSGGSTYYADSVKGRFTISRDYAKNTVYLQMNSLKPEDTAVYYCAVETLTSTSLTRMDYWGQGTQVTVSS | low polyreactivity
35 | QVQLVESGGGLVQAGGSLRLICDASGIIFYDYAMGWYRQAPGKERELVAAITSSGGSTYYADSVKGRFTISRDNAKNTVYLQMNSLKPEDTAVYYCAAATRGSGRRYDYWGQGTQVTLSS | high polyreactivity
36 | QVQLVESGGGLVQAGGSLRLICDASGLTFGIYTMGWYRQAPAKESELVAAINWIGTRTYYADSVKGRFTISRDNAKNTVYLQMNSLKPEDTAVYYCATVIGYTKRKYDYWGQGTQVTVSS | high polyreactivity
37 | QVQLVESGGGLVQAGGSLRLICDASGNTIIRYAMGWYRQGPGKERELVAAISYSGGRTYYADSVKGRFTISRDNAKNTVYLQMNSLKTEVTAVYYCNAASRYGCDYWRQGTQVTVSS | high polyreactivity
38 | QVQLVESGGGLVQAGGSLRLICDASGRIFSFNAMGWSRQAPGKETELVAGITYGGNTYYADSVKGRFTISRDNANNTVYLQMNSLKPEDTAVYYCSAVRGVRHDYWGQGTQVTVSS | low polyreactivity
39 | QVQLVESGGGLVQAGGSLRLICDAYVSTFYYYAMGWYRQAPGKVRELVAAISSGGSTNYADSVKGRFTISRDNAKNTVYLQMNILKPEDTAVYYCNAYSYWWLGYDYWGQGTQVTVSS | high polyreactivity
40 | QVQLVESGGGLVQAGGSLRLICGASGLTSWYNAMGWYRQAPGKEREFVAAISFSGGRTFYADSVKGRFTISRDNAKNTVYLQMNSLKPEDTAVYYCNADVYGFDYWGQGTQVTVSS | high polyreactivity
41 | QVQLVESGGGLVQAGGSLRLICSASGRIFSYNVMGWYRQAPGKEREVVAAITSNDGSTYYADSVKGRFTISRDNAKNTVYLQMNSLKPEDTAVYYCAAPYDYAEYYYWGQGTQVTVSS | low polyreactivity
42 | QVQLVESGGGLVQAGGSLRLICSASGRTFAGYVMGWYRQAHGKERELVAAINASGGSTYYADSVKGRFTISRDNAKNTVYLQKNILKPEDTAVYYCAAARLGSDITRRYYYWGQGTQVTVSS | high polyreactivity
43 | QVQLVESGGGLVQAGGSLRLICSASGSIFYRNVKRWSRQAPGKEREFVATISRGGTTNYADSVKGRITISRDNAKYTVYLQMNSLKPEDTAVYYCAAPIGVVYVGKGYDYWGQGTQVTLSS | low polyreactivity
